For this assay, the target named is Hsp90AA1-MC, HA-tagged. The assay can be described thus: native gel or EMSA. In general terms: Mobility shift assays separate free from complexed probe on a gel.

As for “Hsp90AA1-MC, HA-tagged (domain or fragment)”, the stoichiometry N came to 2.

One may read the stoichiometry N as a count of units in the complex or per binding partner.

The record behind these values is paper PMC6432644.
